In publication PMC10899789, “Flexible structural arrangement and DNA-binding properties of protein p6 from Bacillus subtillis phage φ29” (Nucleic Acids Research, 2024):

B1: Full-length protein p6 (wt) of Bacillus subtilis bacteriophage φ29 (natural protein, UniProt P03685 1-104, looked up)
chain: MAKMMQREITKTTVNVAKMVMVDGEVQVEQLPSETFVGNLTMEQAQWRMKRKYKGEPVQVVSVEPNTEVYELPVEKFLEVATVRVEKDEDQEEQTEAPEEQVAE
notes: numbers count on: the traditional numbering of φ29 p6, where the second residue (Ala) is position 1 because the initial Met is removed in vivo; about 11.8 kDa as printed; also called wt p6; φ29 protein p6; source: produced and purified as previously described (23)
B2: p6CΔ20 (residues 1–83), C-terminal deletion mutant of φ29 protein p6 (domain or fragment)
chain: AKMMQREITKTTVNVAKMVMVDGEVQVEQLPSETFVGNLTMEQAQWRMKRKYKGEPVQVVSVEPNTEVYELPVEKFLEVATVR

Target: the molecule itself
Experiment: AUC; sedimentation velocity, protein alone, 48 000 rpm, 20°C, 50 mM Tris-HCl pH 7.5, 10 mM MgCl2, 50 mM NaCl; 2.5-320 μM protein; isotherms of weight-average sedimentation coefficients fitted to a monomer-dimer self-association model (SEDPHAT); dimer to monomers

Protein | Kd [µM]
B1 | 11.4
B2 | 47
